Consider one substance from article PMC5152705.

The target of test [1] is recombinant fragment of human SP-A (rfhSP-A) (human). Kind of test: SEC; gel permeation chromatography, Superdex 200 HR 10/30, TBS with 5 mM EDTA, pH 7.4; rfhSP-A after IMAC and removal of the NT tag; quaternary structure estimated by comparison with molecular weight standards.
Test [2] has the same target. The test can be described thus: SEC; gel permeation chromatography, Superdex 200 HR 10/30, TBS with 5 mM EDTA, pH 7.4; rfhSP-A purified by mannan affinity chromatography; also after freeze/thawing. (In gel filtration, larger molecules generally elute earlier.)

For orientation: stoichiometry N means a count of units in the complex or per binding partner. As for “recombinant fragment of human SP-A (rfhSP-A) (domain or fragment)”, in test [1], the percent dimeric was 15%, the percent monomeric is 9%, the percent trimeric was 72% and the stoichiometry N was 3. The stoichiometry N in test [2] was determined as 3.
